Patent CN117886935A (BEIJING KENUO XINCHENG TECH CO LTD, dated 2024)

How the values were obtained:
CSF-1R-mFc [1] = target: T1, CSF-1R-mFc (human, UniProt P07333 20-512, limits assumed); experiment: competition ELISA: human IL-34 coated, CSF-1R-mFc 0.15 μg/ml premixed with antibody
T1 construct: not shown: mouse Fc (mFc)

CSF-1R-mFc [2] = target: T1, CSF-1R-mFc; experiment: competition ELISA: CSF1-His coated, CSF-1R-mFc 0.15 μg/ml premixed with antibody
[3] = target: T2, 人CSF-1R-his重组蛋白 (human CSF-1R-his recombinant protein) (human, UniProt P07333 20-512, limits assumed); experiment: BLI (ForteBio), antibody on AHC probe, CSF-1R-his 60 nM, 1:1 fit
T2 construct: Analyte of the ForteBio assay, 60 nM; also called CD115; M-CSF-R; not shown: His tag

[4] = target: CSF-1R on CSF-1R/SRE-Luc/HEK293 reporter cells (UniProt P07333 20-972, limits assumed); experiment: cell-based or functional assay
[5] = target: T3, CSF-1R on rhCSF-1R-CHO cells (human, UniProt P07333 20-972); experiment: flow cytometry on rhCSF-1R-CHO cells, FITC goat anti-human
T3 construct: whole, on cells; also called 细胞表面CSF-1R; CSF-1R-CHO细胞
T3 sequence (P07333 20-972): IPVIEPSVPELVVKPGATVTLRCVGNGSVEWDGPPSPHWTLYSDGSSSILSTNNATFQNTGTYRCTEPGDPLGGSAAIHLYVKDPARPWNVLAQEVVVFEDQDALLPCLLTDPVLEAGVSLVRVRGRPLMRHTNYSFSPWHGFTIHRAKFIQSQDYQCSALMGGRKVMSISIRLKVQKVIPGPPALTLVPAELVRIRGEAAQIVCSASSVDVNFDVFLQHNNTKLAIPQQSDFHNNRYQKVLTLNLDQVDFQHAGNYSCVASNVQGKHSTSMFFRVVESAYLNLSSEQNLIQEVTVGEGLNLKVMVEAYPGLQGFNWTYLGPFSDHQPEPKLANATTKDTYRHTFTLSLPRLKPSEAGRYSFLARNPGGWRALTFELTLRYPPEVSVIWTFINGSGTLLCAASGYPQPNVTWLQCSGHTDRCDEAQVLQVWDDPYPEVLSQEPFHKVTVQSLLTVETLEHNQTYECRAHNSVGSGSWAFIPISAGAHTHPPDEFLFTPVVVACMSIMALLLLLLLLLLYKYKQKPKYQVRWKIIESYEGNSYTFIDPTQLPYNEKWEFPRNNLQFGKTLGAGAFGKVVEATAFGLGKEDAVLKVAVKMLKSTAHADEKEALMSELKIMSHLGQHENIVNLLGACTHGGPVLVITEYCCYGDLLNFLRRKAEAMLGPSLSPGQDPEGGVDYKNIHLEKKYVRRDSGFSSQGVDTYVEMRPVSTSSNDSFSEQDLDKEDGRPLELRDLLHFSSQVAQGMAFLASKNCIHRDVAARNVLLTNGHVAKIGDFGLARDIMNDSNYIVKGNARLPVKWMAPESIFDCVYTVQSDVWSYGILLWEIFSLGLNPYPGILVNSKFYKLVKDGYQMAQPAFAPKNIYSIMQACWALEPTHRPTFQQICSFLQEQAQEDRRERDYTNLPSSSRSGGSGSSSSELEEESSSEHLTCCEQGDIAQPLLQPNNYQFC

T2 sequence (P07333 20-512 limits assumed): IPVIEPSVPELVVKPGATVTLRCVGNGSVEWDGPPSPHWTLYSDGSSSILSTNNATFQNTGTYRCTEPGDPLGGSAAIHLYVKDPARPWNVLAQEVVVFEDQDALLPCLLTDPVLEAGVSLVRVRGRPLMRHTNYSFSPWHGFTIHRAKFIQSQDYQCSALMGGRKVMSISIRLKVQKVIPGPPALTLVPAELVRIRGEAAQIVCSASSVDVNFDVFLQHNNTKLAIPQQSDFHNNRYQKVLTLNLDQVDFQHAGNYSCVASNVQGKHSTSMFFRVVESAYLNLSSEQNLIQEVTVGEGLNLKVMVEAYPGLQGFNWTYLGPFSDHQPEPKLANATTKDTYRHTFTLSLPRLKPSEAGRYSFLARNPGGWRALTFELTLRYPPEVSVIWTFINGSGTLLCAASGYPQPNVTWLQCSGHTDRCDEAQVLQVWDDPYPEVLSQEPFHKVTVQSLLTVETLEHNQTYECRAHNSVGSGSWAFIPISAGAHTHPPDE
Chain of CSF-1R on CSF-1R/SRE-Luc/HEK293 reporter cells (P07333 20-972 limits assumed): as the sequence (P07333 20-972) above
T1 sequence (P07333 20-512 limits assumed): as the sequence (P07333 20-512 limits assumed) above

B1: Cabiralizumab (FPA-008) (antibody, V domains shown)
VH: QVQLVQSGAEVKKPGSSVKVSCKASGYTFTDNYMIWVRQAPGQGLEWMGDINPYNGGTTFNQKFKGRVTITADKSTSTAYMELSSLRSEDTAVYYCARESPYFSNLYVMDYWGQGTLVTVSS
VL: EIVLTQSPATLSLSPGERATLSCKASQSVDYDGDNYMNWYQQKPGQAPRLLIYAASNLESGIPARFSGSGSGTDFTLTISSLEPEDFAVYYCHLSNEDLSTFGGGTKVEIK
notes: Control antibody, synthesised after CN107011438 A; also called Cabirlizumab; 对照抗体
Question: B1 was tested. Which IC50 (CSF-1R-mFc [1]) did it give?
Answer: ~752 pM

Question: What about the IC50 (CSF-1R-mFc [2]) of the same binder?
Answer: 300 pM

Question: And the Kd [3]?
Answer: 2380 pM

Question: And the koff [3]?
Answer: 0.000228 s⁻¹

Question: And the kon [3]?
Answer: 95800 M⁻¹ s⁻¹

Question: What about the “IC50, inhibition of CSF-1-stimulated (7.2 ng/ml) SRE-Luc reporter in CSF-1R/SRE-Luc/HEK293 cells” value [4] of the same binder?
Answer: 0.21 µg/mL

Question: What about the “IC50, inhibition of IL-34-stimulated (85.06 ng/ml) SRE-Luc reporter in CSF-1R/SRE-Luc/HEK293 cells” value [4] of the same binder?
Answer: 0.34 µg/mL

Question: And the EC50 [5]?
Answer: 0.109 µg/mL
